From patent US20240076386A1 (Pfizer, published 2024)

Columns and labels:
[1] = target: T1, human E-selectin, cell-surface expressed (human, UniProt P16581 22-610); test: cell-based or functional assay
T1 sequence: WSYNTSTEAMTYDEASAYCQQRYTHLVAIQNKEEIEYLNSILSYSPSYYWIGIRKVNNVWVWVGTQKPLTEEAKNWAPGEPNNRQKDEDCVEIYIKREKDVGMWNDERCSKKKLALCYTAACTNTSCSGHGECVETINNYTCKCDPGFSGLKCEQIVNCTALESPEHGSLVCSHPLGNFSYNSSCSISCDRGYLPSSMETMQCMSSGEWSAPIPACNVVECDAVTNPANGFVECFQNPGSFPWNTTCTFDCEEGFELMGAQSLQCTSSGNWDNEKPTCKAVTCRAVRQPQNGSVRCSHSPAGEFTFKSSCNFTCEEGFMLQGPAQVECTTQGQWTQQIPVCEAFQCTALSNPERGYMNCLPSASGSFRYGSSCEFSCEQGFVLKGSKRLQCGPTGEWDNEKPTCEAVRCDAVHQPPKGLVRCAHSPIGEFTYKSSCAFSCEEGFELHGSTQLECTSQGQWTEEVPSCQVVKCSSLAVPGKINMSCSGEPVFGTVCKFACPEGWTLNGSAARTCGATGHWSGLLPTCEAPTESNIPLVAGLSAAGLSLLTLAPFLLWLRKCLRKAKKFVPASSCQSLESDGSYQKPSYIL

[2] = target: T1, human E-selectin, cell-surface expressed; test: flow cytometry, CHO cells
Description: CHO cell lines expressing human E-selectin were detached from confluent flasks using enzyme-free Cell Dissociation Buffer (GIBCO, 13151014). Growth media was immediately added to the detached cells, then centrifuged at 300×g for 5 minutes at room temperature to pellet the cells. The cells were then resuspended in cold CHO buffer consisting of phosphate buffered saline (PBS), pH 7.4 containing bovine serum albumin (BSA; Sigma-Aldrich, A³⁰⁵⁹) at final concentration of 1%, calcium chloride at final concentration of 1 mM, and sodium azide at a final concentration of 0.1%.
Binding studies with CHO cells were performed in duplicate using two rows of a 96-well round bottom plate, whereas, binding studies with primary endothelial cells were performed in a single row of a 96-well V-bottom plate. The plates were centrifuged at 300×g for 2 minutes at 4° C. and the cells were resuspended and blocked by incubation in the CHO buffer for 10 minutes on wet ice. After incubation, the cells were centrifuged at 300×g for 2 minutes at 4° C. to remove the buffer. […] After incubation with the antibody, the cells were washed three times by centrifugation at 300×g for 1 minute at 4° C. and resuspended in cold CHO buffer. The washed cells were resuspended and incubated with 100 μL of 1:1000 dilution of AlexaFluor647-conjugated goat anti-human F(ab′)₂ Fragment (Fcγ fragment specific antibody, [Jackson Innnnunoresearch, 109-606-170] for 45 minutes (CHO cells) or 30 minutes (endothelial cells) on wet ice. The cells were washed three or four times prior to resuspension in CHO buffer for flow cytometric analysis. A Becton Dickinson LSRFortessa instrument using 640 nanometer laser line was used to acquire cell fluorescence data. Geometric mean fluorescence of cells was analyzed by FlowJo software package (FlowJo, LLC) and plotted against antibody concentration. The estimated EC₅₀ values were calculated using nonlinear regression analysis in the Prism suite (GraphPad, version 8).

[3] = target: T2, cynomolgus monkey E-selectin, cell-surface expressed (cynomolgus monkey, UniProt P16581 22-610 (human entry)); test: competition ELISA on CHO cells vs sialyl Lewis ligand-PAA-biotin/SA-HRP
T2 construct: also called CHO-cynomolgus monkey E-selectin cells; cynomolgus monkey CHO-E
T2 chain: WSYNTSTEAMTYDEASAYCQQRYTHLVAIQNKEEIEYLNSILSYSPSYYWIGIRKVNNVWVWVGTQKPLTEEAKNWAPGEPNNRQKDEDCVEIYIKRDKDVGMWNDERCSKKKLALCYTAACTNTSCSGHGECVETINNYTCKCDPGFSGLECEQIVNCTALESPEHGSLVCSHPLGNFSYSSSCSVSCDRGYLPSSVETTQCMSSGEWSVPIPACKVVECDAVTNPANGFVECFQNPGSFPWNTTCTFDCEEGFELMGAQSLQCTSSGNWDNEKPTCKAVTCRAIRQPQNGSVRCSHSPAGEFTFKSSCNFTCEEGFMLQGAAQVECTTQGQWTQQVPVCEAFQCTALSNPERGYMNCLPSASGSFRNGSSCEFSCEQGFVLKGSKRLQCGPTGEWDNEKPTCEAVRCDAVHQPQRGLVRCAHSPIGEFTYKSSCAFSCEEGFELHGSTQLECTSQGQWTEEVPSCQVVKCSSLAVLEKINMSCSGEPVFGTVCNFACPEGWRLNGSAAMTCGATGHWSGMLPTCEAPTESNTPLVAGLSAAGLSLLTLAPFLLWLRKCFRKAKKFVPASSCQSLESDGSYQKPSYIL
Description: In a static ligand cellular adhesion assay, horse radish peroxidase (HRP) conjugated E-selectin ligand (sialyl Lewis antigen) and E-selectin antibodies compete for binding to human or cynomolgus E-selectin expressed on Chinese hamster ovary (CHO) cells. The ability of anti-E-selectin antibodies to neutralize ligand binding was assessed in a static neutralization assay using a competition enzyme-linked immunosorbent assay (ELISA) to evaluate the neutralization of the sialyl Lewis antigen to Chinese hamster ovary cells (CHO) engineered to express human or cynomolgus monkey E-selectin.
CHO cells expressing E-selectin were seeded at 12,500 cells per well into a 96 well tissue culture plate and incubated at 37° C., 5% CO₂ for 48 hours to form a confluent monolayer. Plates were subsequently washed twice with 200 μL of calcium magnesium free PBS. Anti-E-selectin antibodies or an IgG1 isotype control (IgG control) were added to the assay in the presence of a small synthetic conjugate of biotinylated, sialyl Lewis A polyacrylamide (Carbosynth LLC, OS45446) or sialyl Lewis X polyacrylamide (Glycotech, 01-045) with streptavidin/horseradish peroxidase (100 μL total) and incubated at 37° C., 5% CO₂ for 2 hours. Plates were then washed twice with 200 μL of calcium and magnesium free PBS. Following the incubation, the cells were washed twice with 200 μL of wash buffer containing 2 mM of calcium chloride (50 mM TRIS [trisaminomethane], 150 mM sodium chloride; 0.05% polysorbate 20, pH 7.4; 2 mM calcium chloride). Signal was developed by adding 100 μL of 1-Step Ultra TMB substrate (Thermo Scientific, 34028) and incubating for 30 minutes at room temperature. Reactions were stopped using 2 M of sulfuric acid and absorbance was read at 450 nm (Spectramax M5e). Data were analyzed and graphed using GraphPad Prism software (Version 8.0.2).

Binder	static neutralization, HL-60 Cell adhesion CHO-Human E-selectin cells IC50 (nM) [1]	EC50 [2]	IC50 [3]
anti-E-selectin antibody 0158 chimera (antibody, human IgG1, kappa, V domains shown, rat VH/VL on effector-null human IgG1 and human kappa) VH: QVQLKESGPGLVQPSETLSLTCTVSGFSISTYNVHWLRQPPGKGLEWMGMMWSGGSPDYNSALKSRLSISRDTSKNQVFLKMNSLQSEDTTTYYCARWGGGFDYWGQGVMVTVSS VL: DIVLTQSPTTLSVTPGETVSLSCRASHSIGTNLHWYQQKTNESPRLLIKFTSQSISGIPSRFSASGSGTDFTLNINNVEFDDVSSYFCQQTQSWPLTFGSGTKLEIKR	> 50 % inhibition at 16.5 nM	–	–
anti-E-selectin antibody 0159 chimera (antibody, human IgG1, kappa, V domains shown, rat VH/VL on effector-null human IgG1 and human kappa) VH: EVQLQQSGAELGKPGTSVKLSCKVSGYNIRSTYMHWVSQRPGKGLEWIGRIDPANGNTIYAEKFKRKATLTADTSSNTAYMQLSQLKSDDRAIYFCAMEVRVSFEYWGQGVMVTVSS VL: DIQMTQSPSFLSASVGDRVTINCKASQNINKYLDWYQQKLGEGPKLLIYYTNNLHTGIPSRFSGSGSGTDFTLTISSLQPEDVATYFCLQHDSGYTFGAGTKLELKR	> 50 % inhibition at 49.4 nM	–	–
anti-E-selectin antibody 0170 chimera (antibody, human IgG1, kappa, V domains shown, rat VH/VL on effector-null human IgG1 and human kappa) VH: EVQLQQSGAELGKPGTSVKLSCKVSGYSIRSTYMHWVNQRPGKGLEWVGRIDPANGNTIYAERFKNKATLTADTSSNTAYMQLSQLKSDDTAIYFCAVEILGIFDYWGQGVMVTVSS VL: DIQMTQSPSFLSASVGDRVTINCKASQNIDKYLDWYQQKLGEAPKLLMYNTNSLHTGIPSRFSGSGSGTDFTLTISSLQPEDVATYFCLQHNSGYTFGAGTKLELKR	> 50 % inhibition at 444 nM	–	–
anti-E-selectin antibody 0180 chimera (antibody, human IgG1, kappa, V domains shown, rat VH/VL on effector-null human IgG1 and human kappa) VH: EVQLQQSGAELGKPGTSVKLSCKVSGYKIRSSYMHWVNQRPGKGLEWIGRIDPANGNTIYGDKFKSKATLTSDTSSNTAYIQLSQLKSDDTAIYFCAIDIGTTFDYWGQGVMVTVSS VL: DIQMTQSPSFLSASVGDRVTINCKASQHINRYLNWYQQKLGEAPKLLIYDANNLQTGIPSRFSGSGSGTDFTLTISSLQPEDVATYFCLQHNSWPNTFGAGTKLELKR	> 50 % inhibition at 444 nM	–	–
anti-E-selectin antibody 0164 chimera (antibody, human IgG1, kappa, V domains shown, rat VH/VL on effector-null human IgG1 and human kappa) VH: EVQLQQSGAEFGKPGTSVKLSCKVSGYNIRSSYMHWVNQRPGKGLEWIGRIDPANGNTIYAEKFKIKAILTADSSSNTAYMQLSQLKSDDTAIYFCAMDLYSTSEYWGQGVMVTVSS VL: DIQMTQSPSFLSASVGDRVTINCKTSQNINRYLNWYQQKLGEAPKLLIYNANSLQTGIPSRFSASGSGTDFTLTINSLQPEDVATYFCLQDNSWPLTFGSGTKLEIKR	> 50 % inhibition at 16.5 nM	–	2.25 nM
optimized anti-E-selectin antibody 1282 (antibody, human IgG1, kappa, V domains shown, effector-null human IgG1, kappa) VH: EVQLVESGGGLVQPGGSLRLSCAASGYAIRSAYMHWVRQAPGKGLEWVARIDPANGNTIYVDSVEGRFTISADNAKNSAYLQMNSLRAEDTAVYYCAMDLYSTSEYWGQGTLVTVSS VL: DIQMTQSPSSLSASVGDRVTITCKTSQNIERYLNWYQQKPGKAPKLLIYAASSLQSGVPSRFSGSGSGTDFTLTISSLQPEDFATYFCLQDNAWPLTFGQGTKVEIKR	–	0.85 nM	1.29 nM

Continued, values first:

static neutralization, HL-60 Cell adhesion CHO-Human E-selectin cells IC50 (nM) [1]	EC50 [2]	IC50 [3]	Binder
–	0.71 nM	–	humanized anti-E-selectin antibody 0841 (antibody, human IgG1, kappa, V domains shown, effector-null human IgG1, kappa) VH: EVQLVESGGGLVQPGGSLRLSCAASGYNIRSSYMHWVRQAPGKGLEWVARIDPANGNTIYAEKFKIRFTISADNAKNSAYLQMNSLRAEDTAVYYCAMDLYSTSEYWGQGTLVTVSS VL: DIQMTQSPSSLSASVGDRVTITCKTSQNINRYLNWYQQKPGKAPKLLIYNANSLQTGVPSRFSGSGSGTDFTLTISSLQPEDFATYFCLQDNSWPLTFGQGTKVEIKR
–	0.64 nM	1.91 nM	optimized anti-E-selectin antibody 1284 (antibody, human IgG1, kappa, V domains shown, effector-null human IgG1, kappa) VH: EVQLVESGGGLVQPGGSLRLSCAASGYAIRSAYMHWVRQAPGKGLEWVARIDPANGNTIYVESVEGRFTISADNAKNSAYLQMNSLRAEDTAVYYCAMDLYSTSEYWGQGTLVTVSS VL: DIQMTQSPSSLSASVGDRVTITCKTSQNIERYLNWYQQKPGKAPKLLIYAASSLQSGVPSRFSGSGSGTDFTLTISSLQPEDFATYFCLQDNAWPLTFGQGTKVEIKR
–	0.66 nM	2.65 nM	optimized anti-E-selectin antibody 1444 (antibody, human IgG1, kappa, V domains shown, effector-null human IgG1, kappa) VH: EVQLVESGGGLVQPGGSLRLSCAASGYAIRSAYMHWVRQAPGKGLEWVARIDPANGNTIYVDSVTGRFTISADNAKNSAYLQMNSLRAEDTAVYYCAMDLYSTSEYWGQGTLVTVSS VL: DIQMTQSPSSLSASVGDRVTITCKTSQNIERYLNWYQQKPGKAPKLLIYAASSLQSGVPSRFSGSGSGTDFTLTISSLQPEDFATYFCLQDNAWPLTFGQGTKVEIKR
–	0.75 nM	1.85 nM	optimized anti-E-selectin antibody 1448 (antibody, human IgG1, kappa, V domains shown, effector-null human IgG1, kappa) VH: EVQLVESGGGLVQPGGSLRLSCAASGYAIRSAYMHWVRQAPGKGLEWVARIDPANGNTIYVDSVKERFTISADNAKNSAYLQMNSLRAEDTAVYYCAMDLYSTSEYWGQGTLVTVSS VL: DIQMTQSPSSLSASVGDRVTITCKTSQNIERYLNWYQQKPGKAPKLLIYAASSLQSGVPSRFSGSGSGTDFTLTISSLQPEDFATYFCLQDNAWPLTFGQGTKVEIKR
